Reference: US20090291088A1, “THERAPEUTIC COMBINATIONS OF ANTI-IGF-1R ANTIBODIES AND OTHER COMPOUNDS” (Biogen Idec MA Inc., priority 2008, published 2009)

Legend:
[1] = target: human IGF-1R(1-903)-Fc (human) (UniProt P08069); experiment: ELISA on hIGF-1R-Fc, competitor Zenon-labelled αIR3
[2] = target: human IGF-1R(1-903)-Fc (human) (UniProt P08069); experiment: ELISA on hIGF-1R-Fc, competitor biotinylated M14-G11
[3] = target: human IGF-1R(1-902)-His10 (human) (UniProt P08069); experiment: ELISA, plate coated with rh-IGF-1R, bound antibody detected with anti-mouse IgG Fc-HRP
[4] = target: human IGF-1R(1-903)-Fc (human) (UniProt P08069); experiment: competition ELISA: biotinylated hIGF-1R-Fc on streptavidin plate, 320 nM human IGF-1 His, detection with anti-His-HRP; blocked ligand human IGF-1 His

## αIR3 (antibody)
[1]
  percent competition (relative to self-competition): 90 to 100%
[2]
  percent competition (relative to self-competition): 90 to 100%
[3]
  EC50 (read off the curve): 0.2 nM
[4]
  IC50 (read off the curve): 5 nM
